Measured values: paper PMC4066776, “Molecular determinants of the DprA−RecA interaction for nucleation on ssDNA”

Molecular target: T1, WT DprA (Streptococcus pneumoniae, UniProt Q8DPI7 1-282)
T1 sequence: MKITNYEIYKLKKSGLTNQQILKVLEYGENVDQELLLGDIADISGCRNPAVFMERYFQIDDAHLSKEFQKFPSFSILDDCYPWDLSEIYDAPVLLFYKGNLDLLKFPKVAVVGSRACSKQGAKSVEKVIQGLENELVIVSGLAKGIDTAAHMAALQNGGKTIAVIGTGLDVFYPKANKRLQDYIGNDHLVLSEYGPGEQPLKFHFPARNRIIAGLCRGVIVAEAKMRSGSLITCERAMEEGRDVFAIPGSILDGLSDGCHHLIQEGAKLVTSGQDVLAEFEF
Experiment: fluorescence anisotropy; Pull-down: 200 mM NaCl, 20 mM Tris-HCl pH 7.5, 20 C, 30 min; anisotropy buffer not in the material
Conditions: protein: recombinant; chain copies: 2; label: fluorescein

TTTTTTTTTTTTTTTTTTTT (ssDNA) [dT20]
binding result: binds
